This passage reports Kd results from publication PMC10939898.

The target of test [1] is fluorescently-labeled nucleosome core particle (NCP) (human). The test can be described thus: fluorescence polarisation. Background: Fluorescence polarisation rises when a labelled molecule tumbles more slowly, as on binding a larger partner.
Test [2] addresses fluorescently-labeled NCP carrying H2AK13ub and H2AK15ub (NCP^ub) (human) (UniProt P0CG48). The test can be described thus: fluorescence polarisation.

Broadly, the Kd is the constant that tells how readily two partners part at equilibrium. Low readings indicate higher affinity, high ones lower affinity. For “full-length human RNF168 (RNF168^FL, aa 1–571) (from UniProt Q8IYW5 1-571) (natural protein)”, the Kd in test [1] amounted to 0.12 µM; in test [2] it was 0.05 µM. “RNF168 RING domain (RNF168^R, aa 1–94) (from UniProt Q8IYW5 1-94) (domain or fragment)” returned a Kd in test [1] of 0.4 µM. For “RNF168 MIU2-LRM (aa 430–481) (from UniProt Q8IYW5 430-481) (domain or fragment)”, the Kd in test [2] came to 1.4 µM.
